Assay [1] has as its target T1, SARS-CoV2 Spike ecto foldon Trimer expressed with a C-terminal myc-myc-hexahistidine (SARS-CoV-2, UniProt P0DTC2 14-1213).
T1 construct: extracellular domain
The assay is described as follows: SPR Biacore, mAb captured by anti-hFc, 25C. Background: SPR reads the build-up and loss of mass on a sensor chip optically.

Assay [2] deals with T1, SARS-CoV2 Spike ecto foldon Trimer …. The assay is described as follows: SPR Biacore, mAb captured by anti-hFc, 37C.

The Kd is the free concentration of one partner at which half of the binding sites on the other are occupied at equilibrium, for simple one-to-one binding. For orientation: koff means the rate constant with which the complex falls apart. A high value points to a short-lived complex. Usually kon stands for the second-order rate constant of association. A word on the t½: it is how long it takes for the measured level to halve. Read a low t½ as fast loss.

B1: mAb14313 (antibody, V domains shown)
VH: EVQLVESGGGLVQPGRSLRLSCVASGFTFDDSAMHWVRQPPGKGLEWVSGISWNSGIIGYAESVKGRFIISRDNAKNSLFLHMRGLRPEDTAVYYCARDRLELSYYYYGMDVWGQGTTVTVSS
VL: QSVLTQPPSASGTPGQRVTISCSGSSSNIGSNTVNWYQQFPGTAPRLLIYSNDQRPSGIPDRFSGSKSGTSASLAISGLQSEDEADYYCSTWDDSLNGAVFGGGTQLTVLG
In assay [1], B1 showed a dissociation constant (Kd) of 0.0565 nM, a dissociation rate constant (koff) of 0.000113 s⁻¹, a kon of 2e+06 M⁻¹ s⁻¹ and a t½ of 1.7 h. In assay [2], this molecule came in with a Kd of 0.0984 nM, an off-rate (koff) of 9.94e-05 s⁻¹, an on-rate (kon) of 1.01e+06 M⁻¹ s⁻¹ and a t½ of 1.94 h.

B2: mAb14294 (antibody, V domains shown)
VH: EVQLVESGGGLVQPGGSLRLSCAASGFTFSNHWMDWVRQAPGKGLVWVSRINSDGSSTDYADSVRGRFTMSRDNAKNTLYLQMSSLRAEDTAVYYCAREGMIFGAVIIPGWYFDLWGRGALVTVSS
VL: EIVLTQSPGTLSLSPGERATLSCRASQSVSSSQLAWYQQKPGQAPRLLIYGASSRATGIPDRFSGSGSGTDFTLTISRLEPEDFAVYYCQQYDSFGQGTKLEIKR
In assay [1], B2 registered a Kd of 0.0329 nM, an off-rate constant (koff) of 2.29e-05 s⁻¹, an on-rate (kon) of 697000 M⁻¹ s⁻¹ and a t½ of 8.39 h. In assay [2], this molecule had a dissociation constant (Kd) of 0.033 nM, a dissociation rate constant (koff) of 2.29e-05 s⁻¹, an on-rate constant (kon) of 694000 M⁻¹ s⁻¹ and a t½ of 8.4 h.

B3: mAb13458 (antibody, V domains shown)
VH: EVQLVESGGGLVQPGRSLRLSCAASGFTFDDYAMHWVRQAPGKGLEWVSGISWNSGSIGYADSVKGRFTISRDNAKNSLYLQMNSLRAEDTALYYCAKDIGITTPYWGQGTLVTVSS
VL: AIQMTQSPSSLSASVGDRVTITCRASQDIRNDLGWYQQKPGKAPKLLIYSASSLQTGVPSRFSGSGSGTDFTLTISSLHPEDFATYYCLQDYWYTWTFGQGTKVEIKR
In assay [1], B3 yielded a Kd of 0.0351 nM, a koff of 4.26e-05 s⁻¹, a kon of 1.21e+06 M⁻¹ s⁻¹ and a t½ of 4.52 h. In assay [2], this molecule displayed a Kd of 0.05 nM, a dissociation rate constant (koff) of 4.08e-05 s⁻¹, a kon of 815000 M⁻¹ s⁻¹ and a t½ of 4.72 h.

B4: mAb13459 (antibody, V domains shown)
VH: EVQLVESGGGLVQPGRSLRLSCAASGFTFDDYAMHWVRQAPGKGLEWVSGISWNSGSIGYADSVKGRFTISRDNAKNSLYLQMNSLRAEDTALYYCAKDIGITTPYWGQGTLVTVSS
VL: AIQMTQSPSSLSASVGDRVTITCRASQDIRNDLGWYQQKPGKAPKLLIYSASSLQTGVPSRFSGSGSGTDFTLTISSLHPEDFATYYCLQDYNYVWTFGQGTKVEIKR
As to B4, in assay [1], the Kd is 0.0389 nM, the koff came to 5.46e-05 s⁻¹, the kon came out at 1.41e+06 M⁻¹ s⁻¹ and the t½ was 3.52 h. Besides, in assay [2], the equilibrium dissociation constant (Kd) came out at 0.0599 nM, the koff stood at 4.76e-05 s⁻¹, the association rate constant (kon) was determined as 794000 M⁻¹ s⁻¹ and the t½ came to 4.05 h.

B5: mAb13457 (antibody, V domains shown)
VH: EVQLVESGGGLVQPGRSLRLSCAASGFTFDDYAMHWVRQAPGKGLEWVSGISWNSGSIGYADSVKGRFTISRDNAKNSLYLQMNSLRAEDTALYYCAKDIGITTPYWGQGTLVTVSS
VL: AIQMTQSPSSLSASVGDRVTITCRASQDIRNDLGWYQQKPGKAPKLLIYSASSLQTGVPSRFSGSGSGTDFTLTISSLHPEDFATYYCLQDYDYTWTFGQGTKVEIKR
In assay [1], B5 registered a dissociation constant (Kd) of 0.0718 nM and a t½ of 3.49 h. In assay [2], this molecule showed an equilibrium dissociation constant (Kd) of 0.0779 nM and a t½ of 3.22 h.

B6: mAb14247 (antibody, V domains shown)
VH: QITLKESGPTLVKPTQTLTLTCTFSGFSLSTSAVGVGWIRQPPGKALEWLALIYWDDDKRYSPSLKSRLTITKDTSKNQLVLTMTNVDPVDTATYYCAHHTIQLIFDYWGQGTLVTVSS
VL: QSALTQPASVSGSPGQSITISCTATSSDVGNYNYVSWYQQHPGKAPKLMIYEVSNRPSGVSNRFSGSKSGNTASLTISGLQAEDEADYYCSSYTSSSTPLVFGGGTKLTVLG
In assay [1], B6 yielded a dissociation constant (Kd) of 0.0521 nM, a koff of 4.91e-05 s⁻¹, a kon of 944000 M⁻¹ s⁻¹ and a t½ of 3.92 h. In addition, in assay [2], the Kd came to 0.0701 nM, the koff came out at 4.72e-05 s⁻¹, the association rate constant (kon) came out at 674000 M⁻¹ s⁻¹ and the t½ was determined as 4.08 h.

B7: mAb14235 (antibody, V domains shown)
VH: QITLKESGPTLVKPTQTLTLTCTFSGFSLNTGGVGVGWIRQPPGNALEWLALIYWDDDKRYNPSLKTRLTISKDTSKNQVVLTMTNMDPVDTATYFCAHLTIAVIVDFWGQGTLVTVSS
VL: QSALTQPASVSGSPGQSITISCTATSSDVGTYNYVSWFQHHPGKAPKLMIYEVTNRPSGVSNRFSGSKSGNTASLTISGLQAEDEADYYCSSYTTTSIVFGGGTKLTVLG
In assay [1], B7 gave a Kd of 0.0474 nM, a koff of 3.69e-05 s⁻¹, a kon of 779000 M⁻¹ s⁻¹ and a t½ of 5.21 h. In assay [2], the Kd was determined as 0.0517 nM, the koff turned out to be 3.8e-05 s⁻¹, the kon is 735000 M⁻¹ s⁻¹ and the t½ is 5.07 h.

B8: mAb14258 (antibody, V domains shown)
VH: QLQLQESGPGLVKPSETLSLICTGSGDSISSSHYYWGWIRQPPGKGLEWIGSTYFSGSTYYNPSLKSRVSISVDTSKNQVSLKLISVTAADTAVYYCAREMGATLGDYWGPGTLVTVSS
VL: QSVLTQPPSASGTPGQRVTISCSGSSSNIGNNYVYWYQQFPGTTPRLLIYRNNERPSGVPDRFSGSKSGTSASLVISGLRSEDEADYYCAAWDDSLSAHYVFGTGTKVTVLG
In assay [1], B8 showed a dissociation constant (Kd) of 0.0232 nM, a koff of 4.91e-05 s⁻¹, an association rate constant (kon) of 2.12e+06 M⁻¹ s⁻¹ and a t½ of 3.92 h. In assay [2], the Kd stood at 0.0776 nM, the koff was 7.93e-05 s⁻¹, the kon worked out at 1.02e+06 M⁻¹ s⁻¹ and the t½ was 2.43 h.

B9: mAb14255 (antibody, V domains shown)
VH: QVQLQESGPGLVKPSETLSLTCTVSGGSISGYYWSWIRQPPGKGLDWIGYIYYRGNTNYNPSLKSRVTISVDTSNNQFSLKLSSVTAADTAVYYCARYGEGYGDASGYHFDYWGQGTLVTVSS
VL: QSALTQPASVSGSPGQSITISCTGTSSDVGSYNLVSWYQQHPGKAPKLMIYEDSKRPSGVANPFSGSKSGNTASLTISGLQAEDEADYYCSSYAGSSTWVFGGGTKLTVLG
Turning to B9, in assay [1], binding was put at a Kd of 0.0706 nM, the off-rate (koff) was found to be 0.000138 s⁻¹, the kon was 1.96e+06 M⁻¹ s⁻¹ and the t½ turned out to be 1.39 h. In assay [2], the Kd turned out to be 0.155 nM, the koff stood at 0.000161 s⁻¹, the association rate constant (kon) came out at 1.03e+06 M⁻¹ s⁻¹ and the t½ stood at 1.2 h.

B10: mAb14315 (antibody, V domains shown)
VH: QVQLVQSGAEVKKPGSSVKVSCKASGDTFSTYAINWVRQAPGQGLEWMGRFIHIFGTANYAQKFQGRVTITADESTSTAYMELRSLRSEDTAVYYCARDGVDYGDYRPDYWGQGTLVTVSS
VL: EIVLTQSPGTLSLSPGERATLSCRASQSVSSNYLAWYQQKPGQAPRLLIYGASSRATGIPERFSGSGSGTDFTLTISRLEPEDFAVYYCQQYGSSLYTFGQGTKLEIKR
In assay [1], B10 returned a Kd of 0.0483 nM, a dissociation rate constant (koff) of 3.15e-05 s⁻¹, a kon of 652000 M⁻¹ s⁻¹ and a t½ of 6.1 h. In assay [2], this molecule came in with a Kd of 0.0437 nM, a dissociation rate constant (koff) of 3.25e-05 s⁻¹, an on-rate (kon) of 743000 M⁻¹ s⁻¹ and a t½ of 5.93 h.

B11: mAb14289 (antibody, V domains shown)
VH: QVQLVQSGPEVKKPGASVKVSCKASGYTFTSYAISWVRQAPGQGLEWMGWISAYNGNTNYAQKLQGRVTMTTDTFTSTAYMELRSLRSDDTAVYYCAVPADHITFDYWGQGTLVTVSS
VL: EIVLTQSPGTLSLSPGERATLSCRASQSVSSYLAWYQQKPGQAPRLLIHGASSRATGIPDRFSGSGSGTDFTLTISRLEPEDFAVYYCQQYGSSFLTFGGGTKVEIKR
In assay [1], B11 showed a Kd of 0.0696 nM, a koff of 6.35e-05 s⁻¹, a kon of 912000 M⁻¹ s⁻¹ and a t½ of 3.03 h. In assay [2], this molecule had a Kd of 0.0728 nM, a koff of 6.63e-05 s⁻¹, a kon of 911000 M⁻¹ s⁻¹ and a t½ of 2.91 h.

B12: mAb14283 (antibody, V domains shown)
VH: QVQLQESGPGLVKPSGTLSLTCDVSGGSISSNNWWSWVRQRPGKGLQWIGEIYHNENTNYNPSLKSRVIMSIDKSKNQFSLKLTSVTAADTAVYYCARGDVLDWFDPWGQGTLVTVSS
VL: QSALTQPASVSGSPGQSTTISCTGTSSDVGGYNYVSWYQQYPGKAPKLMIYDVTNRPSGVSHRFSGSKSGNTASLTISGLQAEDEADYYCSSYTSSSTVIFGGGTKLTVLG
In the case of B12, in assay [1], the affinity, expressed as Kd, was 0.0539 nM; the koff is 8.66e-05 s⁻¹; the on-rate (kon) was found to be 1.61e+06 M⁻¹ s⁻¹; the t½ was determined as 2.22 h. In assay [2], the Kd stood at 0.0847 nM, the off-rate (koff) stood at 7.32e-05 s⁻¹, the kon was 865000 M⁻¹ s⁻¹ and the t½ is 2.63 h.

B13: mAb14286 (antibody, V domains shown)
VH: QVQLVQSGAEVKKPGASVKVSCKASGYTFTDYFIHWVRQAPGQGLEWMGWINPTSGGTNYAQKFRGRVTMTRDTSISTAYVELSRLRSDDTALYYCARDLPFYSDTKQFDYWGQGTLVTVSS
VL: QSALTQPASVSGYPGQSITISCTGTSSDVGGYNYVSWYQQHPGKAPKLMIFDVSNRPSGVSNRFSGSKSGNTASLTFSGLQAEDEADYYCSSYTSSSTLVFGGGTKLTVLG
In assay [1], B13 gave a Kd of 0.0331 nM, a koff of 8.71e-05 s⁻¹, an association rate constant (kon) of 2.63e+06 M⁻¹ s⁻¹ and a t½ of 2.21 h. In assay [2], the dissociation constant Kd is 0.0544 nM, the koff came out at 0.000141 s⁻¹, the kon amounted to 2.59e+06 M⁻¹ s⁻¹ and the t½ was determined as 1.37 h.

B14: mAb14257 (antibody, V domains shown)
VH: EVQLVESGGGLVQPGGSLRLSCAASGFTVSRSYMNWVRQAPGKGLEWVSVVFTGGTTKHTDSVKGRFTISRDNSMNTLYLQMNSLRPEDTAVYYCARVAIVETTGAFDIWGQGTMVTVSS
VL: QSVLTQPPSVSGAPGQRVTISCTGTSSNIGADFDVHWYQQFPGTAPKLLIYGHTNRPSGIPDRFSGSKSGTSASLAITGLQAEDEADYYCQSYDSSLSGSVVFGGGTKLTVLG
As to B14, in assay [1], the Kd worked out at 0.0434 nM, the koff was found to be 0.000107 s⁻¹, the kon stood at 2.45e+06 M⁻¹ s⁻¹ and the t½ turned out to be 1.81 h. In assay [2], the Kd came out at 0.141 nM, the off-rate (koff) came out at 0.000165 s⁻¹, the on-rate (kon) came to 1.17e+06 M⁻¹ s⁻¹ and the t½ came out at 1.17 h.
